Assay results taken from patent EP3443010B1.

B1: HALA (antibody, human IgG4 S228P, kappa, V domains shown)
VH: EVQLVQSGAEVKKPGESLRISCKASGYTFTSYWVHWVRQMPGKGLEWIGNIDPSDSDTHYNQKFKDHVTLSVDKSISTAYLQLSSLKASDTAMYYCVRGGTGTMAWFAYWGQGTLVTVSS
VL: DVVMTQSPLSLPVTLGQPASISCRSSQSLVHSYGNTYLYWYQQRPGQSPRLLIYRVSNRFSGVPDRFSGSGSGTDFTLKISRVEAEDVGVYFCFQGTHVPYTFGGGTKVEIKR
B2: HFLA (antibody, human IgG4 S228P, kappa, V domains shown)
VH: EVQLVQSGAEVKKPGESLRISCKASGYSFTSYWVHWVRQMPGKGLEWMGNIDPSDSDTHYSPSFQGHVTLSVDKSISTAYLQLSSLKASDTAMYYCVRGGTGTMAYFAYWGQGTLVTVSS
VL: DVVMTQSPLSLPVTLGQPASISCRSSQSLVHSYGNTYLYWYQQRPGQSPRLLIYRVSNRFSGVPDRFSGSGSGTDFTLKISRVEAEDVGVYFCFQGTHVPYTFGGGTKVEIKR
B3: HFLB (antibody, human IgG4 S228P, kappa, V domains shown)
VH: EVQLVQSGAEVKKPGESLRISCKASGYSFTSYWVHWVRQMPGKGLEWMGNIDPSDSDTHYSPSFQGHVTLSVDKSISTAYLQLSSLKASDTAMYYCVRGGTGTMAYFAYWGQGTLVTVSS
VL: DVVMTQSPLSLPVTLGQPASISCRSSQSLVHSYGNTYLYWFQQRPGQSPRLLIYRVSNRFSGVPDRFSGSGSGTDFTLKISRVEAEDVGVYYCFQGTHVPYTFGGGTKVEIKR
B4: HEFLA (antibody, human IgG4 S228P, kappa, V domains shown)
VH: EVQLVQSGAEVKKPGESLRISCKASGYSFTSYWVHWVRQMPGKGLEWMGNIDPSDSDTHYSPSFQGHVTLSVDKSISTAYLQLSSLKASDTAMYYCVRGGTGTLAYFAYWGQGTLVTVSS
VL: DVVMTQSPLSLPVTLGQPASISCRSSQSLVHSYGNTYLYWYQQRPGQSPRLLIYRVSNRFSGVPDRFSGSGSGTDFTLKISRVEAEDVGVYFCFQGTHVPYTFGGGTKVEIKR
B5: HEFLB (antibody, human IgG4 S228P, kappa, V domains shown)
VH: EVQLVQSGAEVKKPGESLRISCKASGYSFTSYWVHWVRQMPGKGLEWMGNIDPSDSDTHYSPSFQGHVTLSVDKSISTAYLQLSSLKASDTAMYYCVRGGTGTLAYFAYWGQGTLVTVSS
VL: DVVMTQSPLSLPVTLGQPASISCRSSQSLVHSYGNTYLYWFQQRPGQSPRLLIYRVSNRFSGVPDRFSGSGSGTDFTLKISRVEAEDVGVYYCFQGTHVPYTFGGGTKVEIKR
B6: HALB (antibody, human IgG4 S228P, kappa, V domains shown)
VH: EVQLVQSGAEVKKPGESLRISCKASGYTFTSYWVHWVRQMPGKGLEWIGNIDPSDSDTHYNQKFKDHVTLSVDKSISTAYLQLSSLKASDTAMYYCVRGGTGTMAWFAYWGQGTLVTVSS
VL: DVVMTQSPLSLPVTLGQPASISCRSSQSLVHSYGNTYLYWFQQRPGQSPRLLIYRVSNRFSGVPDRFSGSGSGTDFTLKISRVEAEDVGVYYCFQGTHVPYTFGGGTKVEIKR
B7: HBLA (antibody, human IgG4 S228P, kappa, V domains shown)
VH: EVQLVQSGAEVKKPGESLRISCKASGYSFTSYWVHWVRQMPGKGLEWMGNIDPSDSDTHYNQKFKDHVTLSVDKSISTAYLQLSSLKASDTAMYYCVRGGTGTMAWFAYWGQGTLVTVSS
VL: DVVMTQSPLSLPVTLGQPASISCRSSQSLVHSYGNTYLYWYQQRPGQSPRLLIYRVSNRFSGVPDRFSGSGSGTDFTLKISRVEAEDVGVYFCFQGTHVPYTFGGGTKVEIKR
B8: HBLB (antibody, human IgG4 S228P, kappa, V domains shown)
VH: EVQLVQSGAEVKKPGESLRISCKASGYSFTSYWVHWVRQMPGKGLEWMGNIDPSDSDTHYNQKFKDHVTLSVDKSISTAYLQLSSLKASDTAMYYCVRGGTGTMAWFAYWGQGTLVTVSS
VL: DVVMTQSPLSLPVTLGQPASISCRSSQSLVHSYGNTYLYWFQQRPGQSPRLLIYRVSNRFSGVPDRFSGSGSGTDFTLKISRVEAEDVGVYYCFQGTHVPYTFGGGTKVEIKR
B9: Kwar23 (antibody, from another filing, V domains shown)
VH: EVQLQQSGAELVKPGASVKLSCTASGFNIKDYYIHWVQQRTEQGLEWIGRIDPEDGETKYAPKFQDKATITADTSSNTAYLHLSSLTSEDTAVYYCARWGAYWGQGTLVTVSS
VL: QIVLTQSPAIMSASPGEKVTLTCSASSSVSSSYLYWYQQKPGSSPKLWIYSTSNLASGVPARFSGSGSGTSYSLTISSMEAEDAASYFCHQWSSYPRTFGAGTKLELK
B10: HELA (antibody, human IgG4 S228P, kappa, V domains shown)
VH: EVQLVQSGAEVKKPGESLRISCKASGYSFTSYWVHWVRQMPGKGLEWMGNIDPSDSDTHYSPSFQGHVTLSVDKSISTAYLQLSSLKASDTAMYYCVRGGTGTLAWFAYWGQGTLVTVSS
VL: DVVMTQSPLSLPVTLGQPASISCRSSQSLVHSYGNTYLYWYQQRPGQSPRLLIYRVSNRFSGVPDRFSGSGSGTDFTLKISRVEAEDVGVYFCFQGTHVPYTFGGGTKVEIKR
B11: HELB (antibody, human IgG4 S228P, kappa, V domains shown)
VH: EVQLVQSGAEVKKPGESLRISCKASGYSFTSYWVHWVRQMPGKGLEWMGNIDPSDSDTHYSPSFQGHVTLSVDKSISTAYLQLSSLKASDTAMYYCVRGGTGTLAWFAYWGQGTLVTVSS
VL: DVVMTQSPLSLPVTLGQPASISCRSSQSLVHSYGNTYLYWFQQRPGQSPRLLIYRVSNRFSGVPDRFSGSGSGTDFTLKISRVEAEDVGVYYCFQGTHVPYTFGGGTKVEIKR
B12: HCLA (antibody, human IgG4 S228P, kappa, V domains shown)
VH: EVQLVQSGAEVKKPGESLRISCKASGYSFTSYWVHWVRQMPGKGLEWMGNIDPSDSDTHYSPSFQGHVTLSVDKSISTAYLQLSSLKASDTAMYYCVRGGTGTMAWFAYWGQGTLVTVSS
VL: DVVMTQSPLSLPVTLGQPASISCRSSQSLVHSYGNTYLYWYQQRPGQSPRLLIYRVSNRFSGVPDRFSGSGSGTDFTLKISRVEAEDVGVYFCFQGTHVPYTFGGGTKVEIKR
B13: HCLB (antibody, human IgG4 S228P, kappa, V domains shown)
VH: EVQLVQSGAEVKKPGESLRISCKASGYSFTSYWVHWVRQMPGKGLEWMGNIDPSDSDTHYSPSFQGHVTLSVDKSISTAYLQLSSLKASDTAMYYCVRGGTGTMAWFAYWGQGTLVTVSS
VL: DVVMTQSPLSLPVTLGQPASISCRSSQSLVHSYGNTYLYWFQQRPGQSPRLLIYRVSNRFSGVPDRFSGSGSGTDFTLKISRVEAEDVGVYYCFQGTHVPYTFGGGTKVEIKR

Biological target: recombinant hSIRPa (Sino Biologicals, reference 11612-H08H) (human) (UniProt P78324)
Sequence (P78324 31-370): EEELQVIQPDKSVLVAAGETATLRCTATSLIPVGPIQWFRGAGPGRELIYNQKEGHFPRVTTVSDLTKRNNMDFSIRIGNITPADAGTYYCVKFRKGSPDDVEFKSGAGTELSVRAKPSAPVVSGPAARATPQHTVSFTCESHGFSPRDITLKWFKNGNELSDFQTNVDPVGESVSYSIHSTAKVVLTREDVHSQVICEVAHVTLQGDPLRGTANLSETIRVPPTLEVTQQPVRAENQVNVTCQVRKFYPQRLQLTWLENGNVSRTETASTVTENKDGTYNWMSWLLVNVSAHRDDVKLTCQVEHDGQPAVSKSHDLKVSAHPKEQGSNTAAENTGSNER
Test: ELISA, hSIRPa (Sino 11612-H08H) coated at 0.5 ug/ml, anti-human IgG detection; first experiment

B1 and B2 are within 1.5-fold of each other in EC50: 3.9 ng/mL for the first, 5.1 ng/mL for the second.

Going from B3 to B4, the EC50 rises from 4 ng/mL to 7.1 ng/mL (1.8-fold).

B5 gave an EC50 of 4.4 ng/mL.

Biological target: recombinant hSIRPa (Sino Biologicals, reference 11612-H08H) (human) (UniProt P78324)
Test: ELISA, hSIRPa (Sino 11612-H08H) coated at 0.5 ug/ml, anti-human IgG detection; third experiment

B6 and B7 are within 1.5-fold of each other in EC50: 2.53 ng/mL for the first, 2.68 ng/mL for the second.

With B8 the EC50 was 2.95 ng/mL.

Biological target: recombinant hSIRPa (Sino Biologicals, reference 11612-H08H) (human) (UniProt P78324)
Test: ELISA, hSIRPa (Sino 11612-H08H) coated at 0.5 ug/ml, anti-human IgG detection

Binder B9 has an EC50 of 3.3 ng/mL.

Biological target: recombinant hSIRPa (Sino Biologicals, reference 11612-H08H) (human) (UniProt P78324)
Test: ELISA, hSIRPa (Sino 11612-H08H) coated at 0.5 ug/ml, anti-human IgG detection; second experiment

B10 and B11 are within 1.5-fold of each other in EC50: 4.61 ng/mL for the first, 4.13 ng/mL for the second.

B12 and B13 are within 1.5-fold of each other in EC50: 5.6 ng/mL for the first, 5.59 ng/mL for the second.
